The supplement of paper PMC9112550, “Optimization of the antimicrobial peptide Bac7 by deep mutational scanning” (BMC Biology, 2022)

Tested on: Escherichia coli TOP10
Test: shrunken log2 fold change of peptide-encoding DNA abundance (4.5 h post-induction vs induction); higher = less antimicrobial activity (less host growth inhibition)
Settings: time post-induction: 4.5 h; library: site-saturation at positions 5, 18, 19, 20
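Note: peptides expressed intracellularly from a pBAD plasmid library in pooled LB shake-flask culture, induced with 0.3% L-arabinose, DNA abundance read by NGS, three biological replicates, DESeq2 with apeglm shrinkage.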

Sequence | shrunken log2 fold change
RRIRLRPPRLPRPRPRPFWCPRP | -0.0123
RRIRLRPPRLPRPRPRPFWKPRP | 0.379
RRIRLRPPRLPRPRPRPFWYPRP | -0.0126
RRIRLRPPRLPRPRPRPFYTPRP | -0.338
RRIRLRPPRLPRPRPRPGADPRP | 0.28
RRIRLRPPRLPRPRPRPGFDPRP | 0.137
RRIRLRPPRLPRPRPRPGGWPRP | 0.71
RRIRLRPPRLPRPRPRPGHLPRP | 0.00551
RRIRLRPPRLPRPRPRPGIIPRP | -0.116
RRIRLRPPRLPRPRPRPGIKPRP | -0.874
RRIRLRPPRLPRPRPRPGIMPRP | -0.219
RRIRLRPPRLPRPRPRPGKMPRP | -0.0508
RRIRLRPPRLPRPRPRPGMCPRP | -0.0891
RRIRLRPPRLPRPRPRPGMMPRP | 0.0343
RRIRLRPPRLPRPRPRPGMVPRP | -0.0517
RRIRLRPPRLPRPRPRPGNFPRP | -0.122
RRIRLRPPRLPRPRPRPGNTPRP | -0.242
RRIRLRPPRLPRPRPRPGRYPRP | -0.124
RRIRLRPPRLPRPRPRPGTHPRP | -0.107
RRIRLRPPRLPRPRPRPGVLPRP | 0.204
RRIRLRPPRLPRPRPRPGVNPRP | 0.0348
RRIRLRPPRLPRPRPRPGVPPRP | 0.0447
RRIRLRPPRLPRPRPRPGVSPRP | -0.161
RRIRLRPPRLPRPRPRPGWEPRP | 0.14
RRIRLRPPRLPRPRPRPGWFPRP | 0.147

Sequence | shrunken log2 fold change
RRIRLRPPRLPRPRPRPGYCPRP | -0.416
RRIRLRPPRLPRPRPRPGYFPRP | -0.347
RRIRLRPPRLPRPRPRPHANPRP | -0.293
RRIRLRPPRLPRPRPRPHETPRP | -0.236
RRIRLRPPRLPRPRPRPHKEPRP | 0.0165
RRIRLRPPRLPRPRPRPHKFPRP | -0.138
RRIRLRPPRLPRPRPRPHKWPRP | -0.0343
RRIRLRPPRLPRPRPRPHMVPRP | -0.336
RRIRLRPPRLPRPRPRPHMWPRP | -0.325
RRIRLRPPRLPRPRPRPHNKPRP | -0.59
RRIRLRPPRLPRPRPRPHNLPRP | -0.11
RRIRLRPPRLPRPRPRPHNMPRP | -0.495
RRIRLRPPRLPRPRPRPHNPPRP | -0.883
RRIRLRPPRLPRPRPRPHNTPRP | -0.61
RRIRLRPPRLPRPRPRPHPLPRP | -0.152
RRIRLRPPRLPRPRPRPHSMPRP | -0.506
RRIRLRPPRLPRPRPRPHTAPRP | -0.00187
RRIRLRPPRLPRPRPRPHTCPRP | -0.339
RRIRLRPPRLPRPRPRPHTDPRP | -0.223
RRIRLRPPRLPRPRPRPHTLPRP | -0.224
RRIRLRPPRLPRPRPRPHTNPRP | -0.377
RRIRLRPPRLPRPRPRPHVEPRP | 0.522
RRIRLRPPRLPRPRPRPHVWPRP | 0.198
RRIRLRPPRLPRPRPRPHWYPRP | -0.128
RRIRLRPPRLPRPRPRPHYPPRP | -0.736

Sequence | shrunken log2 fold change
RRIRLRPPRLPRPRPRPHYRPRP | -0.0911
RRIRLRPPRLPRPRPRPIAEPRP | 0.591
RRIRLRPPRLPRPRPRPIAMPRP | -0.0743
RRIRLRPPRLPRPRPRPIAYPRP | -0.0152
RRIRLRPPRLPRPRPRPICQPRP | 0.0108
RRIRLRPPRLPRPRPRPICRPRP | -0.13
RRIRLRPPRLPRPRPRPIDIPRP | 0.00368
RRIRLRPPRLPRPRPRPIDQPRP | 0.281
RRIRLRPPRLPRPRPRPIEPPRP | 0.144
RRIRLRPPRLPRPRPRPIFMPRP | -0.414
RRIRLRPPRLPRPRPRPIFRPRP | 0.00696
RRIRLRPPRLPRPRPRPIFWPRP | -0.189
RRIRLRPPRLPRPRPRPIGRPRP | 0.0169
RRIRLRPPRLPRPRPRPIKFPRP | -0.0676
RRIRLRPPRLPRPRPRPILEPRP | -0.186
RRIRLRPPRLPRPRPRPIMEPRP | -0.193
RRIRLRPPRLPRPRPRPINIPRP | -0.735
RRIRLRPPRLPRPRPRPINKPRP | -0.617
RRIRLRPPRLPRPRPRPIPKPRP | -0.0415
RRIRLRPPRLPRPRPRPIQIPRP | 0.03
RRIRLRPPRLPRPRPRPIQVPRP | -0.072
RRIRLRPPRLPRPRPRPIQWPRP | 0.146
RRIRLRPPRLPRPRPRPIRPPRP | -0.113
RRIRLRPPRLPRPRPRPISHPRP | -0.137
RRIRLRPPRLPRPRPRPISKPRP | -0.125

Sequence | shrunken log2 fold change
RRIRLRPPRLPRPRPRPIVFPRP | -0.0377
RRIRLRPPRLPRPRPRPIWCPRP | -0.0514
RRIRLRPPRLPRPRPRPIWEPRP | 0.0805
RRIRLRPPRLPRPRPRPIWFPRP | 0.0419
RRIRLRPPRLPRPRPRPIWQPRP | 0.0488
RRIRLRPPRLPRPRPRPIYGPRP | 0.0275
RRIRLRPPRLPRPRPRPIYTPRP | -0.377
RRIRLRPPRLPRPRPRPKADPRP | -0.051
RRIRLRPPRLPRPRPRPKATPRP | -0.116
RRIRLRPPRLPRPRPRPKCTPRP | 0.0446
RRIRLRPPRLPRPRPRPKDYPRP | -0.0534
RRIRLRPPRLPRPRPRPKGCPRP | -0.0474
RRIRLRPPRLPRPRPRPKGTPRP | 0.0017
RRIRLRPPRLPRPRPRPKICPRP | 0.0221
RRIRLRPPRLPRPRPRPKIDPRP | -0.042
RRIRLRPPRLPRPRPRPKIHPRP | -0.312
RRIRLRPPRLPRPRPRPKIIPRP | -0.69
RRIRLRPPRLPRPRPRPKKEPRP | -0.0307
RRIRLRPPRLPRPRPRPKLFPRP | 0.306
RRIRLRPPRLPRPRPRPKLPPRP | 0.492
RRIRLRPPRLPRPRPRPKMEPRP | -0.0157
RRIRLRPPRLPRPRPRPKMKPRP | -0.476
RRIRLRPPRLPRPRPRPKNCPRP | -0.5
RRIRLRPPRLPRPRPRPKNSPRP | -0.27
RRIRLRPPRLPRPRPRPKPCPRP | -0.158

Sequence | shrunken log2 fold change
RRIRLRPPRLPRPRPRPKPKPRP | 0.607
RRIRLRPPRLPRPRPRPKQGPRP | -0.0685
RRIRLRPPRLPRPRPRPKRNPRP | 0.225
RRIRLRPPRLPRPRPRPKRPPRP | -0.0353
RRIRLRPPRLPRPRPRPKSCPRP | 0.0755
RRIRLRPPRLPRPRPRPKSSPRP | 0.0397
RRIRLRPPRLPRPRPRPKTRPRP | 0.226
RRIRLRPPRLPRPRPRPKVHPRP | -0.106
RRIRLRPPRLPRPRPRPKWQPRP | -0.0304
RRIRLRPPRLPRPRPRPLATPRP | 0.38
RRIRLRPPRLPRPRPRPLCCPRP | -0.146
RRIRLRPPRLPRPRPRPLCSPRP | -0.223
RRIRLRPPRLPRPRPRPLDFPRP | -0.162
RRIRLRPPRLPRPRPRPLDSPRP | 0.0522
RRIRLRPPRLPRPRPRPLDYPRP | -0.157
RRIRLRPPRLPRPRPRPLELPRP | -0.0406
RRIRLRPPRLPRPRPRPLEMPRP | 0.203
RRIRLRPPRLPRPRPRPLETPRP | -0.0757
RRIRLRPPRLPRPRPRPLFCPRP | -0.142
RRIRLRPPRLPRPRPRPLFIPRP | -0.539
RRIRLRPPRLPRPRPRPLGTPRP | 0.18
RRIRLRPPRLPRPRPRPLHTPRP | -0.289
RRIRLRPPRLPRPRPRPLKKPRP | 0.162
RRIRLRPPRLPRPRPRPLLPPRP | 0.368
RRIRLRPPRLPRPRPRPLLQPRP | 0.138

Sequence | shrunken log2 fold change
RRIRLRPPRLPRPRPRPLMQPRP | -0.0571
RRIRLRPPRLPRPRPRPLNNPRP | -0.593
RRIRLRPPRLPRPRPRPLPCPRP | 0.142
RRIRLRPPRLPRPRPRPLPLPRP | 0.338
RRIRLRPPRLPRPRPRPLRLPRP | 0.417
RRIRLRPPRLPRPRPRPLRWPRP | 0.524
RRIRLRPPRLPRPRPRPLRYPRP | -0.0797
RRIRLRPPRLPRPRPRPLSEPRP | 0.0386
RRIRLRPPRLPRPRPRPLSGPRP | 0.15
RRIRLRPPRLPRPRPRPLTAPRP | -0.0325
RRIRLRPPRLPRPRPRPLTKPRP | -0.0425
RRIRLRPPRLPRPRPRPLVVPRP | -0.113
RRIRLRPPRLPRPRPRPLWMPRP | -0.00586
RRIRLRPPRLPRPRPRPMAAPRP | 0.627
RRIRLRPPRLPRPRPRPMAGPRP | 0.208
RRIRLRPPRLPRPRPRPMAIPRP | 0.11
RRIRLRPPRLPRPRPRPMCCPRP | -0.394
RRIRLRPPRLPRPRPRPMDHPRP | -0.00264
RRIRLRPPRLPRPRPRPMDQPRP | -0.0503
RRIRLRPPRLPRPRPRPMECPRP | -0.489
RRIRLRPPRLPRPRPRPMEIPRP | -0.00427
RRIRLRPPRLPRPRPRPMFVPRP | -0.354
RRIRLRPPRLPRPRPRPMGHPRP | -0.0276
RRIRLRPPRLPRPRPRPMGWPRP | 0.203
RRIRLRPPRLPRPRPRPMKGPRP | 0.0527
